Where two headings read alike, the source gives them in different places.
T1: Sortilin SORTECDBAP_hB01-05 (human/tetraodon chimera)
T1 construct: Shuffle construct: chimeric human/tetraodon Sortilin ECD with BAP tag
T1 chain: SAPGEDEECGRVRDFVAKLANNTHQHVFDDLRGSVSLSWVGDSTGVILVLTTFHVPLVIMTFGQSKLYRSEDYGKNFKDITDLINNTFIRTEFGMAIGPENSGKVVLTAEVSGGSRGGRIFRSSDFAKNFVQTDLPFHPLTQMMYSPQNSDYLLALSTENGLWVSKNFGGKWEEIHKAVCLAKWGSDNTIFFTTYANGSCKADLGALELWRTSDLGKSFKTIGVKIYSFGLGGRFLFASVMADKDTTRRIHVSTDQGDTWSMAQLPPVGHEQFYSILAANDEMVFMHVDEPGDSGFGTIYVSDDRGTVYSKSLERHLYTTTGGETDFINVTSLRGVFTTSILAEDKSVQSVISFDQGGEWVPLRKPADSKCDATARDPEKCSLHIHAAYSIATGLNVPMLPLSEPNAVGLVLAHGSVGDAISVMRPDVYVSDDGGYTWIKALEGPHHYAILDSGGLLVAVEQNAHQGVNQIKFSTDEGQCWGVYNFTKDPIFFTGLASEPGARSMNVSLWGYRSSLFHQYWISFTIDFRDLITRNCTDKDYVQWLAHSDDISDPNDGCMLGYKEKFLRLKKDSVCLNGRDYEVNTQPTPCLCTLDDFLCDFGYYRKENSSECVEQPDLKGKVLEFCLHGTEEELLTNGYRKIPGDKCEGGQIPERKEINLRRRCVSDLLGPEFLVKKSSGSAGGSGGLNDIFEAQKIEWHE

T2: Sortilin SORTECDBAP_hB12390 (human/tetraodon chimera)
T2 construct: Shuffle construct: chimeric human/tetraodon Sortilin ECD with BAP tag
T2 chain: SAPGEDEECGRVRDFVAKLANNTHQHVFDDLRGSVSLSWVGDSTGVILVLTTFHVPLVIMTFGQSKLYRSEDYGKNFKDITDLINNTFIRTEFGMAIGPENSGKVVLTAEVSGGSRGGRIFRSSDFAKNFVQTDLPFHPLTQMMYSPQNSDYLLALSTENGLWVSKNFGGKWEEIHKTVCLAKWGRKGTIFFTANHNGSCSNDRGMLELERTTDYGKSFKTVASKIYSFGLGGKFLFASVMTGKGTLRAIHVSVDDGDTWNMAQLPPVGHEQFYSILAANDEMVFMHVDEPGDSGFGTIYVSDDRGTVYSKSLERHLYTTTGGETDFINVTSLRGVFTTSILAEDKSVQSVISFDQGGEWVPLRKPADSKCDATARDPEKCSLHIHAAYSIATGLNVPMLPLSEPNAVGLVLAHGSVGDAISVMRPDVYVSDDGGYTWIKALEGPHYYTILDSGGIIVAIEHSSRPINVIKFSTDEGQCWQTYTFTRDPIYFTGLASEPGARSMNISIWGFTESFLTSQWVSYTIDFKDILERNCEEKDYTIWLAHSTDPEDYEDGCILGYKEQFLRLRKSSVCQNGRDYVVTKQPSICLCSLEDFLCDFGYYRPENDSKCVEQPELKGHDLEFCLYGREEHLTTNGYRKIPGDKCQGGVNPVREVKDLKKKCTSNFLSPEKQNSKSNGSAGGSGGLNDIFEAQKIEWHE

T3: hBack
T3 chimeric human/tetraodon Sortilin extracellular region, BAP tag: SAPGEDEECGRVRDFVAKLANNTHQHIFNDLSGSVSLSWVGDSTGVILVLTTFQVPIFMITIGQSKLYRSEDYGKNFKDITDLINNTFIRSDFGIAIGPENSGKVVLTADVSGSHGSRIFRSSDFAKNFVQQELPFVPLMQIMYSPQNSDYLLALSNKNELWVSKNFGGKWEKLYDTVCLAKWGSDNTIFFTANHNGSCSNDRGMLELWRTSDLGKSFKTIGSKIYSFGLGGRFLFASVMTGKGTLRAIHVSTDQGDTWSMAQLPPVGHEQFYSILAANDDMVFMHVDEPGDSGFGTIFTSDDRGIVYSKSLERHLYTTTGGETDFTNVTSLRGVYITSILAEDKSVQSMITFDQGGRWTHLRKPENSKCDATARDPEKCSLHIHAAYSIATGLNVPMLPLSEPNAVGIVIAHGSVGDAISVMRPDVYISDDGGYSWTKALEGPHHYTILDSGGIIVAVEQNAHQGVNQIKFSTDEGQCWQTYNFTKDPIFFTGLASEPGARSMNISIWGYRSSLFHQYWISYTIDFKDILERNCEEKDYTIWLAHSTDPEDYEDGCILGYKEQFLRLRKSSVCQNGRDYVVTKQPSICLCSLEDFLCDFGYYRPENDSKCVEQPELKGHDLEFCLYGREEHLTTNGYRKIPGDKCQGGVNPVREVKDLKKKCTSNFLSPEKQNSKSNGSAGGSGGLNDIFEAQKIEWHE

T4: Sortilin SORTECDBAP_tetra (tetraodon)
T4 construct: Fully tetraodon Sortilin ECD with BAP tag; also called tetraodon; tetraodon Sortilin
T4 chain: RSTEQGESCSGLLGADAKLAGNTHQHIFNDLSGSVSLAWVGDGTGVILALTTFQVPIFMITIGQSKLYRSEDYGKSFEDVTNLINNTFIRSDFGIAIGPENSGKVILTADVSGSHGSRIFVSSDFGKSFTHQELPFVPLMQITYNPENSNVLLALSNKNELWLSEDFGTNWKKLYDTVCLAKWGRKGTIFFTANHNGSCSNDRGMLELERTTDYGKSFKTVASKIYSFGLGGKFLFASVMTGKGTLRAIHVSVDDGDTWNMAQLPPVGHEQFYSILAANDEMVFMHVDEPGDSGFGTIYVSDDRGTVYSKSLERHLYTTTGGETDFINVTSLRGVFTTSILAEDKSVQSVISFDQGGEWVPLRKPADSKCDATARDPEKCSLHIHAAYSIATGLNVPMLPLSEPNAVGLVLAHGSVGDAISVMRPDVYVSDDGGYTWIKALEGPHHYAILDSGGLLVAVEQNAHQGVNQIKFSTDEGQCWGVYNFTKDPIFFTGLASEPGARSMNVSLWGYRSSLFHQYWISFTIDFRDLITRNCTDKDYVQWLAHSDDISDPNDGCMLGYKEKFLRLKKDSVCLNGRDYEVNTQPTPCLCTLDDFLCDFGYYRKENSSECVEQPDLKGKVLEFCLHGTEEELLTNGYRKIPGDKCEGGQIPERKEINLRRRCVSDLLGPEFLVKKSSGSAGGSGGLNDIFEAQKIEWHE


How the values were obtained:
Assay in all cases: BLI (Octet384RED)
[1] = biological target: T1, Sortilin SORTECDBAP_hB01-05
[2] = biological target: T2, Sortilin SORTECDBAP_hB12390
hBack [3] = biological target: T3, hBack
[4] = biological target: T4, Sortilin SORTECDBAP_tetra
[5] = biological target: T1, Sortilin SORTECDBAP_hB01-05
[6] = biological target: T2, Sortilin SORTECDBAP_hB12390
hBack [7] = biological target: T3, hBack
[8] = biological target: T4, Sortilin SORTECDBAP_tetra

Binder | binding result [1] | EC50 [2] | EC50 (hBack [3]) | binding result [4] | binding result [5] | EC50 [6] | EC50 (hBack [7]) | binding result [8]
Antibody 6003-936 (antibody, human IgG1, V domains shown) VH: EVQLVQSGAEVKKPGESLKISCKGSGYIFTSFWIGWVRQMPGKGLEWMGIIYPGDSDTRYSPSFQGQVTISADKSISTAYLQWSSLKASDTAMYYCARHSRGSFWYGAFQHWGQGTLVTVSS VL: EIVLTQSPDFQSVTPKEKVTITCRASQSIGSSLHWYQQKPDQSPKLLIKYASQSFSGVPSRFSGSGSGTDFTLTINSLEAEDAAAYYCHQSSSLPHTFGPGTKVDIK | no binding | 11.4 ng/mL | 2.62 ng/mL | no binding | – | – | – | –
Antibody 6003-423 (antibody, human IgG1, V domains shown) VH: EVQLLESGGGLVQPGGSLRLSCEASGFTFRSYVMSWVRQAPGKGLEWVSTISGGGGNTNYTDSVKGRFTISRDNSKNTLYLQMNSLRAEDTAVYYCAKNWGSGFDYWGQGTLVTVSS VL: EIVLTQSPATLSLSPGERATLSCRASQSVSSYLAWYQQKPGQAPRLLIYDASNRATGIPARFSGSGSGTDFTLTISSLEPEDFAVYYCQQRSNWLIFTFGPGTKVDIK | – | – | – | – | no binding | 3.55 ng/mL | 4 ng/mL | no binding
Antibody 6003-471 (antibody, V domains shown) VH: QVQLVQSGAEVKKPGSSVKVSCKASGGTFSNYAISWVRQAPGQGLEWMGRIIPIFGIANYAQKFQGRVTITADKSTSTAYMELSSLRSEDTAVYYCARDRRGFSGYEVFDYWGQGTLVTVSS VL: DIQMTQSPSSLSASVGDRVTITCRASQGISSWLAWYQQKPEKAPKSLIYATSSLQSGVPSRFSGSGSGTDFTLTISSLQPEDFATYYCQQYNSYPITFGQGTRLEIK | – | – | – | – | no binding | 3.16 ng/mL | 2.54 ng/mL | no binding

— patent US20210292414A1 (H LUNDBECK A S, published 2021)
